# Measured values taken from paper PMC12840758, “The Cold Shock Protein CspB from Mycobacterium tuberculosis Binds to MTS0997 sRNA and MTS1338 sRNA as a Dimer” (International Journal of Molecular Sciences, 2026).
# Biological target: the molecule itself
# Assay: SEC; Superdex 75 Increase 10/300 GL, 200 mM NaCl, 50 mM Tris-HCl pH 8.0; 1 mg/mL, 100 uL injected, 0.5 mL/min; calibrated with monomeric globular proteins of 45.8, 24.8, 15.4 and 7.3 kDa
protein,measurement,value
"Cold shock protein CspB from Mycobacterium tuberculosis (natural protein, Removal of the C-terminal His6 tag is not mentioned; also called MtbCspB; M. tuberculosis CspB) MPTGKVKWYDPDKGFGFLSQEGGEDVYVRSSALPTGVEALKAGQRVEFGIASGRRGPQALSLRLIEPPPSLSRPRREPAAEHKHSPDELHGMVEDMITLLESTVQPELRKGRYPDRKTARRVAEVVRAVAREFES",stoichiometry N,2
